Assays:
[1] = target: the molecule itself; experiment: SEC; 3.2 mg/ml His-PodJ(1–635), Superdex 200 10/300 GL, 50 mM Tris-HCl pH 8.0, 300 mM KCl
PleC PAS AB-HK = target: T1, PleC PAS AB-HK (Caulobacter crescentus); experiment: cell-based or functional assay
T1 sequence (P37894 whole entry, looked up): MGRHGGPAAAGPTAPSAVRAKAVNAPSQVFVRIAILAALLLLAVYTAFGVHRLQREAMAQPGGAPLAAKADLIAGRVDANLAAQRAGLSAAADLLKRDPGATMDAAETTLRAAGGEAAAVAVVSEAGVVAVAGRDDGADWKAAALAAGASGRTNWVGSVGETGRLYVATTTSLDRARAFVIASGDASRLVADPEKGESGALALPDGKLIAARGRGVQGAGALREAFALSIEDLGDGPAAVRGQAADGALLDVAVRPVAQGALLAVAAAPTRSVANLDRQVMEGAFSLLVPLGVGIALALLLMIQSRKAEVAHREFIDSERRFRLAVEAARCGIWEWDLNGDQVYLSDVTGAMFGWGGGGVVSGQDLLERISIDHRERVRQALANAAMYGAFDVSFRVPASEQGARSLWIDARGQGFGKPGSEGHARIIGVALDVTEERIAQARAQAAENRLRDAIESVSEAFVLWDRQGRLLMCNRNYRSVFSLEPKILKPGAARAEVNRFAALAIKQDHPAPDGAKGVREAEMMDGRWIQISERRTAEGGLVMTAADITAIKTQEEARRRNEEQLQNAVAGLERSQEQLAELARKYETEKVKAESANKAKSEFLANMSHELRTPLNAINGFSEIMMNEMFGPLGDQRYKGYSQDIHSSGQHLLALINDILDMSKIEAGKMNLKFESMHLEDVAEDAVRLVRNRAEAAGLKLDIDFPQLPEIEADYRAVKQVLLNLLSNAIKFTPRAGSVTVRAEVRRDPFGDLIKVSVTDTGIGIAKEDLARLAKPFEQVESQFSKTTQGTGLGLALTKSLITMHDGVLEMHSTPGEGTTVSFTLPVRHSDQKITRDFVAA

- IC50 of the repression of the ADP production rate of 7.5 μM PleC PAS AB-HK with 1000 μM ATP (coupled enzyme assay), PodJ(1–635) 0-7.5 μM (PleC PAS AB-HK): 1.86 µM
B1: His-PodJ(1–635) (domain or fragment, Caulobacter crescentus, UniProt Q9ZG88 1-635, looked up)
chain: MTAASPWSVKGIDPKAREVAKDLARRSGMTLGEWLNRMIIEGDGQTADPRLAGDDVPNRAYLEIVKDDAPPRIEIAEHPADEVGRVALALDRLTQRIEAAEGRNAAAITGIDHSVRDALTRLGASEREQIAVAARFEGAVDELKTEQARATERLRRIESEAAGPRSAEALRALEGALGKVAGHLYEGEARTREAIATLEAKLNQQSSGDPSALVEAVVARLGERLEAAETRTSDALRELGASFQALDQRLGAVETANPATGVQEGLDSLAATLTQKMEAARLEMAAKLRESADGRFDRMERKLGEMAAHVQAAEQRSAQAIERMGREIVGVADAFNRRVHAAESRNASAIEQVGGEVARIAASVEHKLNRADSVQAQALEKLGGEIARITEKLAERIGSAERRNALAIDDVGEQVARVTERLNQRHERSSQELVDRIRQSEERTLRMLEEAREKIDSRLSEAQRKLEAAPPSPPPAQAPAPVATAQRPVPPAASPFEDNYFSQAASFSTSEDEADAFDAPPAPARSFEVAEFPAAEPEEPAFAHDDYAIADGFEPESPRYEVEPEVSDFAPAEPSRPMSTRDIIEQARAAARAAAASEGKGGKAKSAKKEKASKASGSLFSGFGGFSTKKSKARL
notes: PodJ, Caulobacter crescentus, cytoplasmic domains without the transmembrane tether, residues 1–635; also called cytoplasmic portion of PodJ; source: E. coli Rosetta (DE3), plasmid pwz091, purified (HisTrap HP)
- binding result [1]: binds

Reference: paper PMC8980812, “Regulation of the activity of the bacterial histidine kinase PleC by the scaffolding protein PodJ” (The Journal of Biological Chemistry, 2022)
